Changes are numbered by the printed parent chain. In names and notes the source's numbering stands.
What was measured:
[1] = target: T1, recombinant human DLL4 (Cat# 1506-D4/CF, R&D Systems) (human, UniProt Q9NR61 27-529); experiment: ELISA, DLL4 coated, Fab 100 nM
T1 construct: Bought protein; also called hDLL4; rHuman DLL4
Procedure: (§1) The plate was blocked by adding 1% BSA in Tris-buffered Saline Tween (TBST) and incubating for 1 hour at room temperature followed by washing 2 times with 150 μl TBST. A Fab antibody was serially diluted in 1% BSA in PBS. A 50 μl aliquot of each serial dilution was added, in triplicate, to each well and the plate was incubated for 1 hour at room temperature followed by washing 2 times with TBST. 50 μl of either goat anti-human kappa HRP conjugated secondary antibody (Cat # A7164-1 mL, Sigma-Aldrich) or goat anti-human lambda HRP conjugated secondary antibody (Cat # L1645-1 ml, Sigma-Aldrich), diluted 1:1000 in 1% BSA in PBS, was added to each well and the plate was incubated for 30 minutes at room temperature followed by washing 3 times with 200 μl TBST. Finally, 50 μl TMB one-component reagent (Cat # TMBW-1000-01, BioFax) was added and allowed to develop for 2 minutes at room temperature. The reaction was immediately halted by the addition of 50 μl 0.5M H₂SO₄ and the absorbance at 450 nm was measured using an ELISA plate reader.

[2] = target: T1, recombinant human DLL4 (Cat# …); experiment: ELISA, DLL4 coated, Fab 3.125 nM
Procedure: as §1

[3] = target: T1, recombinant human DLL4 (Cat# …); experiment: ELISA, DLL4 coated, Fab 12.5 nM
Procedure: as §1

[4] = target: T1, recombinant human DLL4 (Cat# …); experiment: ELISA, DLL4 coated, Fab 50 nM
Procedure: as §1

[5] = target: T1, recombinant human DLL4 (Cat# …); experiment: ELISA, DLL4 coated, Fab 25 nM
Procedure: as §1

[6] = target: T1, recombinant human DLL4 (Cat# …); experiment: ELISA, DLL4 coated, Fab 6.25 nM
Procedure: as §1

[7] = target: T1, recombinant human DLL4 (Cat# …); experiment: ELISA, DLL4 coated, Fab 100 nM; remark: listed apart in the source
[8] = target: T1, recombinant human DLL4 (Cat# …); experiment: ELISA, DLL4 coated, Fab 75 nM
[9] = target: T1, recombinant human DLL4 (Cat# …); experiment: ELISA, DLL4 coated, Fab 50 nM; remark: listed apart in the source
Procedure: as §1

[10] = target: T1, recombinant human DLL4 (Cat# …); experiment: ELISA, DLL4 coated, Fab 0.63 nM
Procedure: as §1

[11] = target: T1, recombinant human DLL4 (Cat# …); experiment: ELISA, DLL4 coated, Fab 0.31 nM
Procedure: as §1

[12] = target: T1, recombinant human DLL4 (Cat# …); experiment: ELISA, DLL4 coated, Fab 2.5 nM
Procedure: as §1

[13] = target: T1, recombinant human DLL4 (Cat# …); experiment: ELISA, DLL4 coated, Fab 1.3 nM
Procedure: as §1

[14] = target: T1, recombinant human DLL4 (Cat# …); experiment: ELISA, DLL4 coated, Fab 5 nM
Procedure: as §1

[15] = target: T1, recombinant human DLL4 (Cat# …); experiment: ELISA, DLL4 coated, Fab 20 nM
Procedure: as §1

[16] = target: T1, recombinant human DLL4 (Cat# …); experiment: ELISA, DLL4 coated, Fab 0.16 nM
Procedure: as §1

[17] = target: T1, recombinant human DLL4 (Cat# …); experiment: ELISA, DLL4 coated, Fab 10 nM
Procedure: as §1

B1: Fab VH1-46_IGHD6-6*01_IGHJ1*01 S102A/S103P/S104F/H111F & L6_IGKJ1*01 S28N/S30D/S31H A55G (Fab, V domains shown)
VH: QVQLVQSGAEVKKPGASVKVSCKASGYTFTSYYMHWVRQAPGQGLEWMGIINPSGGSTSYAQKFQGRVTMTRDTSTSTVYMELSSLRSEDTAVYYCAREEYAPFSAEYFQFWGQGTLVTVSS
VL: EIVLTQSPATLSLSPGERATLSCRASQNVDHYLAWYQQKPGQAPRLLIYDASNRGTGIPARFSGSGSGTDFTLTISSLEPEDFAVYYCQQRSNWPPWTFGQGTKVEIKR
notes: Fab made in E. coli: VH on CH1 with His6 and Flag tags (Plasmid A), VL on kappa CL (Plasmid C); also called H: APFF & L: NDH A55G
ELISA absorbance at 450 nm [1]: 0.814 A450
ELISA absorbance at 450 nm [2]: 0.093 A450
ELISA absorbance at 450 nm [3]: 0.198 A450
ELISA absorbance at 450 nm [4]: 0.51 A450
ELISA absorbance at 450 nm [5]: 0.316 A450
ELISA absorbance at 450 nm [6]: 0.125 A450

B2: Fab VH1-46_IGHD6-6*01_IGHJ1*01 S102A/S103P/S104F/H111F S54A & L6_IGKJ1*01 S28N/S30D/S31H (Fab, V domains shown)
VH: B1 VH with S54A
VL: B1 VL with G55A
notes: Fab made in E. coli: VH on CH1 with His6 and Flag tags (Plasmid A), VL on kappa CL (Plasmid C); also called H: APFF S54A & L: NDH
ELISA absorbance at 450 nm [7]: 0.213 A450
ELISA absorbance at 450 nm [8]: 0.212 A450
ELISA absorbance at 450 nm [9]: 0.154 A450

B3: Fab VH1-46_IGHD6-6*01_IGHJ1*01 S102A/S103P/S104F/H111F G56A & L6_IGKJ1*01 (Fab, V domains shown)
VH: B1 VH with G56A
VL: not shown
notes: Fab made in E. coli: VH on CH1 with His6 and Flag tags (Plasmid A), VL on kappa CL (Plasmid C); also called H: APFF G56A & L: wt
ELISA absorbance at 450 nm [7]: 0.338 A450
ELISA absorbance at 450 nm [8]: 0.399 A450
ELISA absorbance at 450 nm [9]: 0.301 A450

B4: Fab VH1-46_IGHD6-6*01_IGHJ1*01 S102A/S103P/S104F/H111F & L6_IGKJ1*01 S28N/S30D/S31H A55S (Fab, V domains shown)
VH: B1 VH
VL: B1 VL with G55S
notes: Fab made in E. coli: VH on CH1 with His6 and Flag tags (Plasmid A), VL on kappa CL (Plasmid C); also called H: APFF & L: NDH A55S
ELISA absorbance at 450 nm [1]: 0.858 A450
ELISA absorbance at 450 nm [2]: 0.108 A450
ELISA absorbance at 450 nm [3]: 0.258 A450
ELISA absorbance at 450 nm [4]: 0.588 A450
ELISA absorbance at 450 nm [5]: 0.407 A450
ELISA absorbance at 450 nm [6]: 0.154 A450

B5: Fab VH1-46_IGHD6-6*01_IGHJ1*01 S102A/S103P/S104F/H111F G56A & L6_IGKJ1*01 S28N/S30D/S31H (Fab, V domains shown)
VH: B1 VH with G56A
VL: B1 VL with G55A
notes: Fab made in E. coli: VH on CH1 with His6 and Flag tags (Plasmid A), VL on kappa CL (Plasmid C); also called H: APFF G56A & L: NDH
ELISA absorbance at 450 nm [7]: 0.453 A450
ELISA absorbance at 450 nm [8]: 0.543 A450
ELISA absorbance at 450 nm [9]: 0.366 A450

B6: Fab VH1-46_IGHD6-6*01_IGHJ1*01 S102A/S103P/S104F/H111F & L6_IGKJ1*01 S28N/S30D/S31H S52L (Fab, V domains shown)
VH: B1 VH
VL: B1 VL with S52L, G55A
notes: Fab made in E. coli: VH on CH1 with His6 and Flag tags (Plasmid A), VL on kappa CL (Plasmid C); also called H: APFF & L: NDH S52L
ELISA absorbance at 450 nm [1]: 0.791 A450
ELISA absorbance at 450 nm [2]: 0.095 A450
ELISA absorbance at 450 nm [3]: 0.215 A450
ELISA absorbance at 450 nm [4]: 0.546 A450
ELISA absorbance at 450 nm [5]: 0.335 A450
ELISA absorbance at 450 nm [6]: 0.142 A450

B7: Fab VH1-46_IGHD6-6*01_IGHJ1*01 S102A/S103P/S104F/H111F I51V/N52L/S54T/G56H & L6_IGKJ1*01 (Fab, V domains shown)
VH: B1 VH with I51V, N52L, S54T, G56H
VL: not shown
notes: Fab made in E. coli: VH on CH1 with His6 and Flag tags (Plasmid A), VL on kappa CL (Plasmid C); also called H: APFF VLTH & L: wt
ELISA absorbance at 450 nm [10]: 0.785 A450
ELISA absorbance at 450 nm [11]: 2.05 A450
ELISA absorbance at 450 nm [12]: 1.66 A450
ELISA absorbance at 450 nm [13]: 0.252 A450
ELISA absorbance at 450 nm [14]: 2.2 A450
ELISA absorbance at 450 nm [15]: 2.05 A450
ELISA absorbance at 450 nm [16]: 1.85 A450
ELISA absorbance at 450 nm [17]: 1.85 A450

B8: Fab VH1-46_IGHD6-6*01_IGHJ1*01 S102A/S103P/S104F/H111F I51N/N52L/S54T/G56H & L6_IGKJ1*01 (Fab, V domains shown)
VH: B1 VH with I51N, N52L, S54T, G56H
VL: not shown
notes: Fab made in E. coli: VH on CH1 with His6 and Flag tags (Plasmid A), VL on kappa CL (Plasmid C); also called H: APFF NLTH & L: wt
ELISA absorbance at 450 nm [10]: 0.419 A450
ELISA absorbance at 450 nm [11]: 1.63 A450
ELISA absorbance at 450 nm [12]: 1.17 A450
ELISA absorbance at 450 nm [13]: 0.143 A450
ELISA absorbance at 450 nm [14]: 1.75 A450
ELISA absorbance at 450 nm [15]: 1.63 A450
ELISA absorbance at 450 nm [16]: 1.36 A450
ELISA absorbance at 450 nm [17]: 1.36 A450
